Legend:
HLA-A*02:11 = assay: IEDB peptide-MHC binding, purified MHC/competitive/fluorescence; filed as Kd, often an IC50 or EC50 that approximates it; ≥ and ≤ were set here for values at or beyond the usual limits of such assays
HLA-A*69:01 = assay: as above
HLA-A*02:19 = assay: as above
HLA-A*02:06 = assay: as above; settings: source organism: Human immunodeficiency virus 1
HLA-A*02:01 [1] = assay: as above
HLA-A*02:03 = assay: as above
HLA-A*02:12 = assay: as above
HLA-A*02:16 = assay: as above
HLA-B*15:01 [2] = assay: IEDB peptide-MHC binding, purified MHC/competitive/fluorescence; ≥ and ≤ were set here for values at or beyond the usual limits of such assays
HLA-A*02:01 [3] = assay: as above
HLA-A*01:01 [4] = assay: as above
HLA-B*15:02 = assay: IEDB peptide-MHC binding, purified MHC/competitive/fluorescence; filed as Kd, often an IC50 or EC50 that approximates it; ≥ and ≤ were set here for values at or beyond the usual limits of such assays
HLA-A*24:03 = assay: as above
HLA-B*39:01 = assay: as above
HLA-B*46:01 = assay: as above
HLA-B*15:01 [5] = assay: as above
HLA-B*57:01 = assay: as above
HLA-B*18:01 = assay: as above
HLA-A*68:02 = assay: as above
HLA-A*03:01 [6] = assay: as above
HLA-B*27:03 = assay: as above
HLA-B*51:01 = assay: as above
HLA-A*26:01 = assay: as above
HLA-B*15:17 = assay: as above
HLA-A*29:02 = assay: as above; settings: source organism: Brucella suis ATCC 23445
HLA-B*40:01 = assay: as above; settings: source organism: Salmonella enterica subsp. enterica serovar Typhi
HLA-B*27:05 = assay: as above; settings: source organism: Salmonella enterica subsp. enterica serovar Typhi
HLA-A*33:01 = assay: IEDB peptide-MHC binding, purified MHC/competitive/radioactivity; filed as Kd, often an IC50 or EC50 that approximates it; ≥ and ≤ were set here for values at or beyond the usual limits of such assays; settings: source organism: Vaccinia virus WR
HLA-A*31:01 = assay: as above; settings: source organism: Vaccinia virus WR
HLA-A*11:01 [7] = assay: as above; settings: source organism: Vaccinia virus WR
HLA-A*03:01 [8] = assay: as above; settings: source organism: Vaccinia virus WR
HLA-A*68:01 = assay: as above; settings: source organism: Vaccinia virus WR
HLA-A*26:02 = assay: IEDB peptide-MHC binding, purified MHC/competitive/fluorescence; filed as Kd, often an IC50 or EC50 that approximates it; ≥ and ≤ were set here for values at or beyond the usual limits of such assays; settings: source organism: Human immunodeficiency virus 1
HLA-A*30:01 = assay: as above; settings: source organism: Human immunodeficiency virus 1
HLA-A*01:01 [9] = assay: as above; settings: source organism: Human immunodeficiency virus 1
HLA-A*11:01 [10] = assay: as above; settings: source organism: Human immunodeficiency virus 1
HLA-C*14:02 = assay: IEDB peptide-MHC binding, purified MHC/direct/fluorescence; filed as Kd, often an IC50 or EC50 that approximates it; ≥ and ≤ were set here for values at or beyond the usual limits of such assays; settings: source organism: Bacillus anthracis str. A2012
HLA-C*06:02 = assay: as above; settings: source organism: Bacillus anthracis str. A2012
HLA-C*12:03 = assay: as above; settings: source organism: Bacillus anthracis str. A2012
HLA-C*03:03 = assay: as above; settings: source organism: Bacillus anthracis str. A2012
HLA-C*07:02 = assay: as above; settings: source organism: Bacillus anthracis str. A2012
HLA-C*15:02 = assay: as above; settings: source organism: Bacillus anthracis str. A2012
[11] = source organism: Human immunodeficiency virus 1
[12] = source organism: Zaire ebolavirus
[13] = source organism: Escherichia coli HS
[14] = source organism: Brucella suis ATCC 23445
[15] = source organism: Salmonella enterica subsp. enterica serovar Typhi
[16] = source organism: Vaccinia virus Copenhagen
[17] = source organism: Bacillus anthracis str. A2012

ALVEMGHHV
Kd (HLA-A*02:11; [11]): 1.8 nM | Kd (HLA-A*69:01; [11]): 2010 nM | Kd (HLA-A*02:19; [11]): 134 nM | Kd (HLA-A*02:06): 1.18 nM | Kd (HLA-A*02:01 [1]; [11]): 334 nM | Kd (HLA-A*02:03; [11]): 3.64 nM | Kd (HLA-A*02:12; [11]): 17.5 nM | Kd (HLA-A*02:16; [11]): 3.07 nM

FLESGAVKY
IC50 (HLA-B*15:01 [2]; [12]): 19500 nM | IC50 (HLA-A*02:01 [3]; [12]): 26300 nM | IC50 (HLA-A*01:01 [4]; [12]): 3400 nM

FLRSSSAIE
Kd (HLA-B*15:02; source organism: Coxiella burnetii Dugway 5J108-111): ≥ 20000 nM

GQRDTDVPY
Kd (HLA-B*15:02; source organism: Yersinia enterocolitica subsp. enterocolitica 8081): 1240 nM

ISLWGSLLK
Kd (HLA-A*24:03; [13]): ≥ 20000 nM | Kd (HLA-A*69:01; [13]): ≥ 20000 nM | Kd (HLA-B*39:01; [13]): ≥ 20000 nM | Kd (HLA-A*02:19; [13]): ≥ 20000 nM | Kd (HLA-B*46:01; [13]): ≥ 20000 nM | Kd (HLA-B*15:01 [5]; [13]): ≥ 20000 nM | Kd (HLA-A*02:01 [1]; [13]): ≥ 20000 nM | Kd (HLA-B*57:01; [13]): ≥ 20000 nM | Kd (HLA-B*18:01; [13]): ≥ 20000 nM | Kd (HLA-A*68:02; [13]): ≥ 20000 nM | Kd (HLA-A*03:01 [6]; [13]): 33.9 nM | Kd (HLA-B*27:03; [13]): ≥ 20000 nM | Kd (HLA-B*51:01; [13]): ≥ 20000 nM | Kd (HLA-A*26:01; [13]): ≥ 20000 nM | Kd (HLA-A*02:12; [13]): ≥ 20000 nM | Kd (HLA-A*02:16; [13]): ≥ 20000 nM

ITAVNRYFK
Kd (HLA-A*02:11; [14]): ≥ 20000 nM | Kd (HLA-A*24:03; [14]): ≥ 20000 nM | Kd (HLA-A*69:01; [14]): ≥ 20000 nM | Kd (HLA-B*39:01; [14]): ≥ 20000 nM | Kd (HLA-A*02:19; [14]): ≥ 20000 nM | Kd (HLA-B*46:01; [14]): ≥ 20000 nM | Kd (HLA-B*15:01 [5]; [14]): ≥ 20000 nM | Kd (HLA-A*02:01 [1]; [14]): ≥ 20000 nM | Kd (HLA-B*57:01; [14]): ≥ 20000 nM | Kd (HLA-B*18:01; [14]): ≥ 20000 nM | Kd (HLA-A*68:02; [14]): ≥ 20000 nM | Kd (HLA-A*03:01 [6]; [14]): 57 nM | Kd (HLA-A*02:03; [14]): ≥ 20000 nM | Kd (HLA-B*27:03; [14]): ≥ 20000 nM | Kd (HLA-B*51:01; [14]): ≥ 20000 nM | Kd (HLA-A*26:01; [14]): ≥ 20000 nM | Kd (HLA-B*15:17; [14]): ≥ 20000 nM | Kd (HLA-A*02:12; [14]): ≥ 20000 nM | Kd (HLA-A*02:16; [14]): ≥ 20000 nM | Kd (HLA-A*29:02): 757 nM

KMGKAGYVT
Kd (HLA-A*02:11; [11]): 24.5 nM | Kd (HLA-A*69:01; [11]): ≥ 20000 nM | Kd (HLA-A*02:19; [11]): 6000 nM | Kd (HLA-A*02:06): 609 nM | Kd (HLA-A*02:01 [1]; [11]): 323 nM | Kd (HLA-A*02:03; [11]): 196 nM | Kd (HLA-A*02:12; [11]): 1210 nM | Kd (HLA-A*02:16; [11]): 261 nM

KQFCLSILL
Kd (HLA-B*39:01; [15]): 64.6 nM | Kd (HLA-A*02:01 [1]; [15]): 2.9 nM | Kd (HLA-B*40:01): 90.5 nM | Kd (HLA-B*27:05): 208 nM

MEDNFSIYI
Kd (HLA-B*15:01 [5]; [15]): ≥ 20000 nM | Kd (HLA-B*40:01): 3.4 nM

MLEGETKLY
IC50 (HLA-B*15:01 [2]; [16]): 61700 nM | IC50 (HLA-A*02:01 [3]; [16]): ≥ 166000 nM | IC50 (HLA-A*01:01 [4]; [16]): 8100 nM | Kd (HLA-A*33:01): ≥ 57100 nM | Kd (HLA-A*31:01): ≥ 61400 nM | Kd (HLA-A*11:01 [7]): 7060 nM | Kd (HLA-A*03:01 [8]): 220 nM | Kd (HLA-A*68:01): 17000 nM

RSLYNTVAVLY
Kd (HLA-A*26:02): 2360 nM | Kd (HLA-A*02:06): 596 nM | Kd (HLA-B*15:01 [5]; [11]): 1320 nM | Kd (HLA-A*30:01): ≥ 20000 nM | Kd (HLA-A*01:01 [9]): ≥ 20000 nM | Kd (HLA-B*18:01; [11]): 250 nM | Kd (HLA-A*11:01 [10]): 1520 nM | Kd (HLA-A*02:03; [11]): 1360 nM | Kd (HLA-B*15:17; [11]): 11.8 nM

SMFDSWGPF
Kd (HLA-C*14:02): 185 nM | Kd (HLA-C*06:02): ≥ 20000 nM | Kd (HLA-C*12:03): 102 nM | Kd (HLA-C*03:03): ≥ 20000 nM | Kd (HLA-C*07:02): 224 nM | Kd (HLA-C*15:02): ≥ 20000 nM | Kd (HLA-B*46:01; [17]): 4.3 nM | Kd (HLA-B*15:02; [17]): 5 nM

WIGQTSHGW
Kd (HLA-B*15:02; source organism: Vibrio cholerae): ≥ 20000 nM

Source: the Immune Epitope Database (IEDB)
